Laboratory results reported in article PMC10655381.

Target: recombinant glycerol dehydratase 2eGDHt αβγ heterotrimer from Klebsiella pneumoniae 2e (Klebsiella pneumoniae 2e) (UniProt Q59476)
Experiment: native gel or EMSA; Native-PAGE of purified recombinant 2eGDHt; heterotrimer to dimer of heterotrimers

stoichiometry N: 2
Substance: recombinant glycerol dehydratase 2eGDHt αβγ heterotrimer from Klebsiella pneumoniae 2e (from UniProt Q59476 1-555; A6TE99 1-194; Q59475 1-141) (complex)
